Test results taken from patent US20250361312A1 (INVOX PHARMA, published 2025).

Columns and labels:
Experiment in all cases: SPR (Biacore T200), receptor on CM5 chip
human TNFRI = molecular target: T1, human TNFRI (human, UniProt P19438 30-211, limits assumed)
T1 construct: Amine-coupled to a CM5 chip
T1 sequence (looked up): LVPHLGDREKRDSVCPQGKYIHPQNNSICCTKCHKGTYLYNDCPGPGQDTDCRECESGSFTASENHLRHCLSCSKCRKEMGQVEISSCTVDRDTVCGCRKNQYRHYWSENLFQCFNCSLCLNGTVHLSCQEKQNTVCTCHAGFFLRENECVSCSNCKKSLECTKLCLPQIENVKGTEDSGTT

human TNFRII = molecular target: T2, human TNFRII (human, UniProt P20333 23-257, limits assumed)
T2 construct: Amine-coupled to a CM5 chip
T2 sequence (looked up): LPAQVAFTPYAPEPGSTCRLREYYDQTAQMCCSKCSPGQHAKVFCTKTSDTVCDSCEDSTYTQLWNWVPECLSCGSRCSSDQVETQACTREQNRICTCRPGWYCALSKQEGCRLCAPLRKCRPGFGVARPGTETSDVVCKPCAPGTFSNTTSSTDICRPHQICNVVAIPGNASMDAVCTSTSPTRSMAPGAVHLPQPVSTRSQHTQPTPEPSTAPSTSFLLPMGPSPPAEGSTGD

human NGFR = molecular target: T3, human NGFR (human, UniProt P08138 29-250, limits assumed)
T3 construct: Amine-coupled to a CM5 chip
T3 sequence (looked up): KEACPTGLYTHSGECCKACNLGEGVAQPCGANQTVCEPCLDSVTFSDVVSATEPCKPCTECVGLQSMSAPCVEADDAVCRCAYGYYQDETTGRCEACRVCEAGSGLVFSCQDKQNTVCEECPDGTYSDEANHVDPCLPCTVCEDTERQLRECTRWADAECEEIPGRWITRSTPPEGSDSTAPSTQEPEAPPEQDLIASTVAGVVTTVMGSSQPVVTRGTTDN

human CD137 = molecular target: T4, human CD137 (human, UniProt Q07011 24-186, limits assumed)
T4 construct: Amine-coupled to a CM5 chip; also called 4-1BB

human CD40 = molecular target: T5, human CD40 (human, UniProt P25942 21-193, limits assumed)
T5 construct: Amine-coupled to a CM5 chip
T5 sequence (P25942 21-193 limits assumed): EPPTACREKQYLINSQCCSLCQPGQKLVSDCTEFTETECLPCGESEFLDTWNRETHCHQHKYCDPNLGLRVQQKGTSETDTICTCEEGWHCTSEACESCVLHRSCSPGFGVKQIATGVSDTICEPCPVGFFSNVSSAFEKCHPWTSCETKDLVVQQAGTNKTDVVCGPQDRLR

Measured: binding result

B1: FS20-11-134AA/4420 (bispecific antibody, human IgG1, kappa, L234A L235A)
heavy: EVKLDETGGGLVQPGRPMKLSCVASGFTFSDYWMNWVRQSPEKGLEWVAQIRNKPYNYETYYSDSVKGRFTISRDDSKSSVYLQMNNLRVEDMGIYYCTGSYYGMDYWGQGTSVTVSSASTKGPSVFPLAPSSKSTSGGTAALGCLVKDYFPEPVTVSWNSGALTSGVHTFPAVLQSSGLYSLSSVVTVPSSSLGTQTYICNVNHKPSNTKVDKKVEPKSCDKTHTCPPCPAPEAAGGPSVFLFPPKPKDTLMISRTPEVTCVVVDVSHEDPEVKFNWYVDGVEVHNAKTKPREEQYNSTYRVVSVLTVLHQDWLNGKEYKCKVSNKALPAPIEKTISKAKGQPREPQVYTLPPSREEDDNDVSLTCLVKGFYPSDIAVEWESNGIPIGPYKTTPPVLDSDGSFFLYSKLTVDKSRWWKHYVEEHPFLCSVMHEALHNHYTQKSLSLSPG
light: DVVMTQTPLSLPVSLGDQASISCRSSQSLVHSNGNTYLRWYLQKPGQSPKVLIYKVSNRFSGVPDRFSGSGSGTDFTLKISRVEAEDLGVYFCSQSTHVPWTFGGGTKLEIKRTVAAPSVFIFPPSDEQLKSGTASVVCLLNNFYPREAKVQWKVDNALQSGNSQESVTEQDSKDSTYSLSSTLTLSKADYEKHKVYACEVTHQGLSSPVTKSFNRGEC
notes: Human IgG1 with anti-FITC 4420 Fab and LALA; The OX40 site is in the CH3 domain; also called FS20-11-134 Fcab in mock (4420 LALA) mAb^2 format
no binding (tested: 1 µM): all assays above

B2: FS20-22-41AA/4420 (bispecific antibody, human IgG1, kappa, L234A L235A)
heavy: EVKLDETGGGLVQPGRPMKLSCVASGFTFSDYWMNWVRQSPEKGLEWVAQIRNKPYNYETYYSDSVKGRFTISRDDSKSSVYLQMNNLRVEDMGIYYCTGSYYGMDYWGQGTSVTVSSASTKGPSVFPLAPSSKSTSGGTAALGCLVKDYFPEPVTVSWNSGALTSGVHTFPAVLQSSGLYSLSSVVTVPSSSLGTQTYICNVNHKPSNTKVDKKVEPKSCDKTHTCPPCPAPEAAGGPSVFLFPPKPKDTLMISRTPEVTCVVVDVSHEDPEVKFNWYVDGVEVHNAKTKPREEQYNSTYRVVSVLTVLHQDWLNGKEYKCKVSNKALPAPIEKTISKAKGQPREPQVYTLPPSRDEYWDQEVSLTCLVKGFYPSDIAVEWESNGDEQFAYKTTPPVLDSDGSFFLYSKLTVDQYRWNPGDYFSCSVMHEALHNHYTQKSLSLSPG
light: DVVMTQTPLSLPVSLGDQASISCRSSQSLVHSNGNTYLRWYLQKPGQSPKVLIYKVSNRFSGVPDRFSGSGSGTDFTLKISRVEAEDLGVYFCSQSTHVPWTFGGGTKLEIKRTVAAPSVFIFPPSDEQLKSGTASVVCLLNNFYPREAKVQWKVDNALQSGNSQESVTEQDSKDSTYSLSSTLTLSKADYEKHKVYACEVTHQGLSSPVTKSFNRGEC
notes: Human IgG1 with anti-FITC 4420 Fab and LALA; The OX40 site is in the CH3 domain; also called FS20-22-41 Fcab in mock (4420 LALA) mAb^2 format
no binding (tested: 1 µM): all assays above

B3: FS20-11-127AA/4420 (bispecific antibody, human IgG1, kappa, L234A L235A)
heavy: EVKLDETGGGLVQPGRPMKLSCVASGFTFSDYWMNWVRQSPEKGLEWVAQIRNKPYNYETYYSDSVKGRFTISRDDSKSSVYLQMNNLRVEDMGIYYCTGSYYGMDYWGQGTSVTVSSASTKGPSVFPLAPSSKSTSGGTAALGCLVKDYFPEPVTVSWNSGALTSGVHTFPAVLQSSGLYSLSSVVTVPSSSLGTQTYICNVNHKPSNTKVDKKVEPKSCDKTHTCPPCPAPEAAGGPSVFLFPPKPKDTLMISRTPEVTCVVVDVSHEDPEVKFNWYVDGVEVHNAKTKPREEQYNSTYRVVSVLTVLHQDWLNGKEYKCKVSNKALPAPIEKTISKAKGQPREPQVYTLPPSREEDDNDVSLTCLVKGFYPSDIAVEWESNGIPIGPYKTTPPVLDSDGSFFLYSKLTVDKSRWWRHYVEEHPFLCSVMHEALHNHYTQKSLSLSPG
light: DVVMTQTPLSLPVSLGDQASISCRSSQSLVHSNGNTYLRWYLQKPGQSPKVLIYKVSNRFSGVPDRFSGSGSGTDFTLKISRVEAEDLGVYFCSQSTHVPWTFGGGTKLEIKRTVAAPSVFIFPPSDEQLKSGTASVVCLLNNFYPREAKVQWKVDNALQSGNSQESVTEQDSKDSTYSLSSTLTLSKADYEKHKVYACEVTHQGLSSPVTKSFNRGEC
notes: Human IgG1 with anti-FITC 4420 Fab and LALA; The OX40 site is in the CH3 domain
no binding (tested: 1 µM): all assays above

B4: FS20-22-38AA/4420 (bispecific antibody, human IgG1, kappa, L234A L235A)
heavy: EVKLDETGGGLVQPGRPMKLSCVASGFTFSDYWMNWVRQSPEKGLEWVAQIRNKPYNYETYYSDSVKGRFTISRDDSKSSVYLQMNNLRVEDMGIYYCTGSYYGMDYWGQGTSVTVSSASTKGPSVFPLAPSSKSTSGGTAALGCLVKDYFPEPVTVSWNSGALTSGVHTFPAVLQSSGLYSLSSVVTVPSSSLGTQTYICNVNHKPSNTKVDKKVEPKSCDKTHTCPPCPAPEAAGGPSVFLFPPKPKDTLMISRTPEVTCVVVDVSHEDPEVKFNWYVDGVEVHNAKTKPREEQYNSTYRVVSVLTVLHQDWLNGKEYKCKVSNKALPAPIEKTISKAKGQPREPQVYTLPPSRDEYWDQEVSLTCLVKGFYPSDIAVEWESNGAEKYQYKTTPPVLDSDGSFFLYSKLTVDQYRWNPGDYFSCSVMHEALHNHYTQKSLSLSPG
light: DVVMTQTPLSLPVSLGDQASISCRSSQSLVHSNGNTYLRWYLQKPGQSPKVLIYKVSNRFSGVPDRFSGSGSGTDFTLKISRVEAEDLGVYFCSQSTHVPWTFGGGTKLEIKRTVAAPSVFIFPPSDEQLKSGTASVVCLLNNFYPREAKVQWKVDNALQSGNSQESVTEQDSKDSTYSLSSTLTLSKADYEKHKVYACEVTHQGLSSPVTKSFNRGEC
notes: Human IgG1 with anti-FITC 4420 Fab and LALA; The OX40 site is in the CH3 domain; also called FS20-22-38 Fcab in mock (4420 LALA) mAb^2 format
no binding (tested: 1 µM): all assays above

B5: FS20-11-131AA/4420 (bispecific antibody, human IgG1, kappa, L234A L235A)
heavy: EVKLDETGGGLVQPGRPMKLSCVASGFTFSDYWMNWVRQSPEKGLEWVAQIRNKPYNYETYYSDSVKGRFTISRDDSKSSVYLQMNNLRVEDMGIYYCTGSYYGMDYWGQGTSVTVSSASTKGPSVFPLAPSSKSTSGGTAALGCLVKDYFPEPVTVSWNSGALTSGVHTFPAVLQSSGLYSLSSVVTVPSSSLGTQTYICNVNHKPSNTKVDKKVEPKSCDKTHTCPPCPAPEAAGGPSVFLFPPKPKDTLMISRTPEVTCVVVDVSHEDPEVKFNWYVDGVEVHNAKTKPREEQYNSTYRVVSVLTVLHQDWLNGKEYKCKVSNKALPAPIEKTISKAKGQPREPQVYTLPPSREEDDNDVSLTCLVKGFYPSDIAVEWESNGIPIGPYKTTPPVLDSDGSFFLYSKLTVDKNRWWKHYVDEHPFLCSVMHEALHNHYTQKSLSLSPG
light: DVVMTQTPLSLPVSLGDQASISCRSSQSLVHSNGNTYLRWYLQKPGQSPKVLIYKVSNRFSGVPDRFSGSGSGTDFTLKISRVEAEDLGVYFCSQSTHVPWTFGGGTKLEIKRTVAAPSVFIFPPSDEQLKSGTASVVCLLNNFYPREAKVQWKVDNALQSGNSQESVTEQDSKDSTYSLSSTLTLSKADYEKHKVYACEVTHQGLSSPVTKSFNRGEC
notes: Human IgG1 with anti-FITC 4420 Fab and LALA; The OX40 site is in the CH3 domain; also called FS20-11-131 Fcab in mock (4420 LALA) mAb^2 format
no binding (tested: 1 µM): all assays above

B6: FS20-22-47AA/4420 (bispecific antibody, human IgG1, kappa, L234A L235A)
heavy: EVKLDETGGGLVQPGRPMKLSCVASGFTFSDYWMNWVRQSPEKGLEWVAQIRNKPYNYETYYSDSVKGRFTISRDDSKSSVYLQMNNLRVEDMGIYYCTGSYYGMDYWGQGTSVTVSSASTKGPSVFPLAPSSKSTSGGTAALGCLVKDYFPEPVTVSWNSGALTSGVHTFPAVLQSSGLYSLSSVVTVPSSSLGTQTYICNVNHKPSNTKVDKKVEPKSCDKTHTCPPCPAPEAAGGPSVFLFPPKPKDTLMISRTPEVTCVVVDVSHEDPEVKFNWYVDGVEVHNAKTKPREEQYNSTYRVVSVLTVLHQDWLNGKEYKCKVSNKALPAPIEKTISKAKGQPREPQVYTLPPSRDEYWDQEVSLTCLVKGFYPSDIAVEWESNGDEQFAYKTTPPVLDSDGSFFLYSKLTVDQYRWSPGDYFSCSVMHEALHNHYTQKSLSLSPG
light: DVVMTQTPLSLPVSLGDQASISCRSSQSLVHSNGNTYLRWYLQKPGQSPKVLIYKVSNRFSGVPDRFSGSGSGTDFTLKISRVEAEDLGVYFCSQSTHVPWTFGGGTKLEIKRTVAAPSVFIFPPSDEQLKSGTASVVCLLNNFYPREAKVQWKVDNALQSGNSQESVTEQDSKDSTYSLSSTLTLSKADYEKHKVYACEVTHQGLSSPVTKSFNRGEC
notes: Human IgG1 with anti-FITC 4420 Fab and LALA; The OX40 site is in the CH3 domain; also called FS20-22-47 Fcab in mock (4420 LALA) mAb^2 format
no binding (tested: 1 µM): all assays above
